According to US20210371878A1:

Experiments:
[1] = target: C-intein of Npu DnaE fused to 3' ABCA4 (set 1, from Cys1150), 3xflag (product of pzac-CMV260-3' ABCA4 intein) (Nostoc punctiforme; human) (UniProt P78363); assay: cell-based or functional assay
[2] = target: C-intein of DnaE from Nostoc punctiforme fused to the C-terminal half of EGFP, 3xflag (product of pAAV2.1-CMV-3' EGFP intein) (Nostoc punctiforme); assay: cell-based or functional assay

Row | Substance | Full-length ABCA4 by Western blot band intensity, relative to the single AAV plasmid (HEK293, set 1) [1] [%] | EGFP protein amount by Western blot band intensity, relative to a single AAV plasmid [2] [%]
1 | 5' ABCA4 (set 1, split at Cys1150) fused to the N-intein of Npu DnaE, 3xflag (product of pzac-CMV260-5' ABCA4 intein) (from UniProt P78363 1-1150) | 61 | –
2 | N-terminal half of EGFP fused to the N-intein of DnaE from Nostoc punctiforme, 3xflag (product of pAAV2.1-CMV-5' EGFP intein) | – | 76
